Test results from US9266952B2, “Antibodies against ROR1 and uses thereof” (KANCERA AB, priority 2010, dated 2016).

Test system: primary patient CLL cells
Assay: Primary patient CLL cells i.v. in irradiated NOD.SCID mice, spleen
Type: in vivo
Settings: 10 mg/kg i.p. from day 5-7 after transfer, sacrificed 3-7 days later, versus isotype control
Description: Primary patient CLL cells are intravenously injected into immuno-deficient NOD. SCID mice. The CLL cells home to the spleen and there form proliferating clusters, very similar to human disease. After allowing to settle in the spleen for 5-7 days, the mice were treated with 10 mg/kg anti-ROR1 antibodies every third day and terminated after (A) 7 days, n=7 mice/group; (B) 7 days, n=9-10 mice/group; (C) 4 days, n=8 mice/group; (D) 3 days, n=5 mice/group. At termination the number of CLL cells is quantified in spleen using FACS staining of human CD45, CD19 and CD20. Each figure represents cells from individual CLL patients.
NOD.SCID mice received whole-body irradiation of 1 Gy 1 day prior to injection of primary patient cells.
PBMCs were isolated from peripheral blood of four CLL patients using the Ficoll Hypaque technique. Thereafter, 100×10^6 cells was injected i.v into irradiated NOD.SCID mice. The mice were treated i.p with 10 mg/kg of the ROR1 specific mAb 009-G03, or irrelevant negative control mAb at day 5-7 after transfer of cells to mice and sacrificed 3-7 days later. […]
Spleens were dissected out, minced, and lysed for red blood cells. The cell suspension were stained with fluorochrome conjugated mAb's recognizing human CD45, CD19 or CD20 and CLL cells were quantified as being either CD45^+CD19^+ or CD45^+CD20^+. […]

B1: 010-D06: ROR1 specific mAb, VH SEQ ID NO: 27, VL SEQ ID NO: 28 (FIG. 15) (antibody, listed as Mus musculus, V domains shown)
VH: EVQLLESGGGLVQPGGSLRLSCAASGFTFRDYGMHWVRQAPGKGLEWVSAISGSGGSTFYADSVKGRFTISRDNSKNTLYLQMNSLRAEDTAVYYCARGRSAGSMGYFDYWGQGTLVTVSS
VL: QSVLTQPPSASGTPGQRVTISCTGSSSNIGAGYDVHWYQQLPGTAPKLLIYGNSNRPSGVPDRFSGSKSGTSASLAISGLRSEDEADYYCAAWDDSLNGWVFGGGTKLTVLG
  number of grafted CLL cells in the spleen: significantly reduces the number of grafted CLL cells in the spleen
